The target in the test is T1, SARS-COV-2病毒N蛋白 (SARS-COV-2, UniProt P0DTC9 1-419).
T1 construct: also called 新型冠状病毒N蛋白; SARS-COV-2N蛋白
The experiment in a line: ELISA, N protein coated 100 ng/well, supernatant of transfected Expi293F cells. Background: An ELISA detects its analyte on a solid surface through an enzyme-linked reagent.

B1: 31A8抗体重链31A8mG1 (heavy chain transfected alone) (other)
VH: EVQLQQSGPELVKPGASVKISCKTSGYTFTKYTMHWVKQSHGKSLEWIGGINPNNGGNSYNQKFKGKATLTVDKSSSTAYMELRSLTSEDSAVYYCATPDYWGQGTTLTVSS
Take B1: the binding result is on record as “no binding”.

Source of the values: patent publication CN116425870A (UNIV SHAANXI NORMAL, dated 2023).
